Assay results published in patent US20090175784A1.

Assays:
[1] = molecular target: human αVβ3/5 integrins on human tumor cells (A375.S2, MDA-MB-231, A2780, HT29, A549) (human) (UniProt P06756); test: cell-based or functional assay; design: IC50 of doxorubicin, integrin targeted liposome-entrapped dox 90:1, murine melanoma B16-F10 cells (negative control): unit not given beside the values
[2] = molecular target: murine αVβ3/5 integrin (murine melanoma cell line B16F10, negative control) (murine) (UniProt P43406); test: cell-based or functional assay; design: IC50 of doxorubicin, integrin targeted liposome-entrapped dox 90:1, murine melanoma B16-F10 cells (negative control): unit not given beside the values
murine αVβ3/5 integrin (murine melanoma cell line B16F10, negative control) (murine), sequence (P43406 31-1044, form in doubt, chain 1 of 3): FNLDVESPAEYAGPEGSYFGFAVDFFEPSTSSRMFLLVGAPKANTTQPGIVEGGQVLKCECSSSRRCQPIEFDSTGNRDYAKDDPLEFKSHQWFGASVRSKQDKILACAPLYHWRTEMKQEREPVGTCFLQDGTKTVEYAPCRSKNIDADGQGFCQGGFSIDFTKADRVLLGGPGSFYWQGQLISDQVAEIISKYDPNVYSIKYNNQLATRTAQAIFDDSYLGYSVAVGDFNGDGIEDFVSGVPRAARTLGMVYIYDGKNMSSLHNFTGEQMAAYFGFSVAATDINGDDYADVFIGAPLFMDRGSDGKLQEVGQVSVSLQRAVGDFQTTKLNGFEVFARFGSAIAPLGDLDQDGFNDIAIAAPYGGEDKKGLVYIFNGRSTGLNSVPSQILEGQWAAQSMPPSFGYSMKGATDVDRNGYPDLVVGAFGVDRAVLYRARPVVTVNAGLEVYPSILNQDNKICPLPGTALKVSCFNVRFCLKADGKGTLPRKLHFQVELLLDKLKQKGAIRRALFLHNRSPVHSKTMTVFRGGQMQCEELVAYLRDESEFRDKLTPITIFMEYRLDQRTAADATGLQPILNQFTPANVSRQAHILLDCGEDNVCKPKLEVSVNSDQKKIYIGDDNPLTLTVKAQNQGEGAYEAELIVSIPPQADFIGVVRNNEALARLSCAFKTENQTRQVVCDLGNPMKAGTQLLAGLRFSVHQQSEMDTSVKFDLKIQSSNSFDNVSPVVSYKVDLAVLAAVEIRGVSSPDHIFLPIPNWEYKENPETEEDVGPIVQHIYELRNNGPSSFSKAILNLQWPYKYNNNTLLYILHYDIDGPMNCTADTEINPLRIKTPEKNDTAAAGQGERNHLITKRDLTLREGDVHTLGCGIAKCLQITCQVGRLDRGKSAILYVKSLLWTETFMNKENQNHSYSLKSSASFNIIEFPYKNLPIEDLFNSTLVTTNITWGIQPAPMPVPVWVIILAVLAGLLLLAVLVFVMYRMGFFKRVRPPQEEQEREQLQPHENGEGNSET
murine αVβ3/5 integrin (murine melanoma cell line B16F10, negative control) (murine), sequence (O54890 26-787, form in doubt, chain 2 of 3, further chain): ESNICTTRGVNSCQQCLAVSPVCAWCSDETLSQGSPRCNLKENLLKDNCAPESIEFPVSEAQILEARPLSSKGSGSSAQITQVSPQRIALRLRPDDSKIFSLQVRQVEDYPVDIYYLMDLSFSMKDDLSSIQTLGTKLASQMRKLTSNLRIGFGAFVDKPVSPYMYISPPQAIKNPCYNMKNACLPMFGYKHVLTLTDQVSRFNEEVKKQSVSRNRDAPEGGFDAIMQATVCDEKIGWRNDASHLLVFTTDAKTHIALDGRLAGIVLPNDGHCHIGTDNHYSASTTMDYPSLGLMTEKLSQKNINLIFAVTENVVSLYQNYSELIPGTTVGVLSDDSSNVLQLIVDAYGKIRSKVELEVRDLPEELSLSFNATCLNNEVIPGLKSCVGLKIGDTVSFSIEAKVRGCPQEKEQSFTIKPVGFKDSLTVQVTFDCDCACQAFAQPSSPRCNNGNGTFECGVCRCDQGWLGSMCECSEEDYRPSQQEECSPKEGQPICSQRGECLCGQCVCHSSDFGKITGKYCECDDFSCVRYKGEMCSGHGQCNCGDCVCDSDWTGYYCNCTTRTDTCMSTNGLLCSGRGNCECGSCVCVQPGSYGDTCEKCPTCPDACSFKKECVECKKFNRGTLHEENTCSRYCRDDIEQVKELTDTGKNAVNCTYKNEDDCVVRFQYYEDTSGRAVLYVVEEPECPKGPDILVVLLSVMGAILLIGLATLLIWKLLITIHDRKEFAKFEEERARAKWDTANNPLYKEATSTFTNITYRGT
murine αVβ3/5 integrin (murine melanoma cell line B16F10, negative control) (murine), sequence (O70309 24-798, form in doubt, chain 3 of 3, further chain): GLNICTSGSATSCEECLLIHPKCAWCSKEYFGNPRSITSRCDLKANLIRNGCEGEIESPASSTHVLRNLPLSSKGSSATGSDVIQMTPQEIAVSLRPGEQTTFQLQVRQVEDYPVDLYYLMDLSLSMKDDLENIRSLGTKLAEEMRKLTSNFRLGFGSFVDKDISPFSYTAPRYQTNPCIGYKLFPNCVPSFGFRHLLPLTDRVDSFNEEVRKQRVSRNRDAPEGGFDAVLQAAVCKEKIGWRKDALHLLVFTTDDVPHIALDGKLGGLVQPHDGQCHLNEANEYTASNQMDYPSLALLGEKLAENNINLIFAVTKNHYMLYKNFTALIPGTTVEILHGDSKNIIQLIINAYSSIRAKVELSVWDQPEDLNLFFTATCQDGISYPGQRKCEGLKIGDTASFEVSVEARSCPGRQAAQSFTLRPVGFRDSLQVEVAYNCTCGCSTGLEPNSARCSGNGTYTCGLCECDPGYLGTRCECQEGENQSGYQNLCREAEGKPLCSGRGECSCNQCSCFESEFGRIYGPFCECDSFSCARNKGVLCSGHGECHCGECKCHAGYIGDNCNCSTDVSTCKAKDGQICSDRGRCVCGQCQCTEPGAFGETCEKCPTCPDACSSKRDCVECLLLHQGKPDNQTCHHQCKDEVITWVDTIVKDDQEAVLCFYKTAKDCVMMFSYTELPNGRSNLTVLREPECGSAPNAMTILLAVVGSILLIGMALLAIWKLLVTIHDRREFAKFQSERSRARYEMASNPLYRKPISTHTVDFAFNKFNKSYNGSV

Increase (ratio of IC50 of liposome-entrapped dox to IC50 of integrin-targeted 90:1), breast cancer MDA-MB-231 cells [1]: 5 fold
Increase (ratio of IC50 of liposome-entrapped dox to IC50 of integrin-targeted 90:1), colon cancer HT29 cells [1]: 1.1 fold
Increase (ratio of IC50 of liposome-entrapped dox to IC50 of integrin-targeted 90:1), lung cancer A549 cells [1]: 1 fold
Increase (ratio of IC50 of liposome-entrapped dox to IC50 of integrin-targeted 90:1), melanoma A375.S2 cells [1]: 29 fold
Increase (ratio of IC50 of liposome-entrapped dox to IC50 of integrin-targeted 90:1), ovarian cancer A2780 cells [1]: 29 fold
IC50 of doxorubicin, integrin targeted liposome-entrapped dox 90:1, murine melanoma B16-F10 cells (negative control) [2]: > 200
Increase (ratio of IC50 of liposome-entrapped dox to IC50 of integrin-targeted 90:1), murine melanoma B16-F10 cells (negative control) [2]: 1 fold
Substance: CNTO95 Fab′ (from pepsin F(ab′)2, reduced and reoxidized) conjugated to MalPEG-DSPE on the surface of liposomes
